± gives the uncertainty stated by the source.
Assay: protein stability index of a GFP-peptide fusion (yeast GPS) (PSI 1-4); higher = more stable; sorted into four equal gates, so the index is relative within each strain
In short: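 Each library plasmid carries Cherry plus GFP with a tiled 17-residue yeast protein peptide fused downstream, and the pooled library was carried in yeast. Mid-log cultures in leucine-free medium were sorted into four equal gates by GFP/Cherry ratio. Reads from Illumina sequencing of PCR-amplified plasmids from each gate were assigned to strains by barcodes. Per peptide, the protein stability index was computed as the summed products of gate read frequency and gate number.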

Sequence	protein stability index (doa10∆)	protein stability index (pdr5∆)	protein stability index (san1∆)	protein stability index (ubr1∆)
ILQYFEKWISSKNSKLS [SIR3]	2.8 ± 0.15	1.48 ± 0.087	2 ± 0.26	1.27 ± 0.083
ILQYSRTWYESFCGFLL [YJR042W/NUP85]	2.11 ± 0.061	1.72 ± 0.049	1.39 ± 0.14	1.42 ± 0.067
ILRKPGKDCKLQNLQRI [RRI2]	3.12 ± 0.094	3.47 ± 0.14	3.14 ± 0.096	3.07 ± 0.13
ILRQRGPGFKFVDLNEK [SRB4]	2.57 ± 0.11	1.64 ± 0.076	1.44 ± 0.21	1.75 ± 0.079
ILRRQAILRQQQQMANN [GAL11]	2.49 ± 0.15	3.02 ± 0.16	2.62 ± 0.18	2.65 ± 0.13
ILVGGTLKDYQIKGLQW [SNF2]	2.99 ± 0.076	2.83 ± 0.077	3.01 ± 0.056	3.16 ± 0.047
ILYGPPGTGKTLLARAV [RPT6]	3.4 ± 0.16	3.09 ± 0.23	3.35 ± 0.16	2.95 ± 0.21
ILYTSKIVFILDSDSEN [RRI2]	1.76 ± 0.065	1.88 ± 0.047	1.43 ± 0.09	1.71 ± 0.037
IMFNHARIIRSELLARD [RGR1]	1.58 ± 0.11	2.17 ± 0.14	2.62 ± 0.14	2.55 ± 0.086
IMLLQLELGSCFSQENI [SIN4]	1.64 ± 0.046	1.87 ± 0.047	2.52 ± 0.067	2.27 ± 0.062
INAVLVNDNDERAARVV [RPO31]	2.88 ± 0.12	3.04 ± 0.13	2.94 ± 0.097	2.56 ± 0.084
INDNNTRPYILERARDV [YCG1]	3.6 ± 0.23			
INGEPSIHVNRVERSSR [RRI1]	2.99 ± 0.078	3.01 ± 0.067	3.1 ± 0.053	3.1 ± 0.051
INHEDGFIETTELLNIY [RPN3]	2.97 ± 0.079	2.93 ± 0.1	3.09 ± 0.072	3.19 ± 0.066
INIAQMSACVGQQSVEG [RPO21]			3.22 ± 0.17	3.07 ± 0.1
INIQKYNNNTIRKLLEK [CSI1]	2.85 ± 0.25	2.51 ± 0.17		2.54 ± 0.11
INKLMEKDFQVNKEIKP [SIR4]	3.4 ± 0.083	3.31 ± 0.069	3.16 ± 0.069	3.31 ± 0.057
INLTKVTQKDICILGIL [CSI1]	2.78 ± 0.07	2.83 ± 0.07	3.03 ± 0.059	3.11 ± 0.15
INSENDYSRKQLGYGKF [NUT1]	3.46 ± 0.26			3.17 ± 0.22
INSGTNSANGSSLNGTN [SSN3]	2.55 ± 0.056	2.75 ± 0.055	2.82 ± 0.05	2.7 ± 0.041
INVVIKASRKSVGLPSK [ECM29]	1.27 ± 0.089	1.7 ± 0.074	1.95 ± 0.24	1.26 ± 0.13

Sequence	protein stability index (doa10∆)	protein stability index (pdr5∆)	protein stability index (san1∆)	protein stability index (ubr1∆)
IPDIGDLPDTEGLELLG [PRP8]	3.08 ± 0.14	3.15 ± 0.15	3.35 ± 0.063	3.29 ± 0.046
IPGEYVTYALSGYVRSR [RPS21A]	2.18 ± 0.29		2.61 ± 0.21	2.92 ± 0.16
IPHIFYSLHQIRKDPNN [CSE2]	2.7 ± 0.11	2.61 ± 0.071	2.5 ± 0.058	2.67 ± 0.042
IPPLNKSLAMEHKSQVV [CSN12]	1.26 ± 0.063	1.63 ± 0.078	1.49 ± 0.12	1.35 ± 0.071
IPSAAFNFFEPIKEAKI [YMR129W/POM152]	1.98 ± 0.039	2.27 ± 0.037	2.15 ± 0.044	2.44 ± 0.025
IQDTLRTGSQSPPSSSQ [MED7]	2.81 ± 0.044	2.91 ± 0.05	2.77 ± 0.043	2.89 ± 0.032
IQEFQGNPYIELNQDRL [SNF5]	3.13 ± 0.059	3.15 ± 0.07	3.24 ± 0.06	3.23 ± 0.04
IQGFYWAVKEGPLAEEP [SNU114]	1.58 ± 0.089	1.35 ± 0.086	1.27 ± 0.21	1.22 ± 0.04
IQHIAAAMVPFIKFKLI [CDC53]	2.42 ± 0.048	2.42 ± 0.043	2.42 ± 0.056	2.43 ± 0.048
IQLPASLAATYSMISLQ [ARP9]	1.73 ± 0.088	2.01 ± 0.074	2.29 ± 0.1	2.19 ± 0.053
IQLQEFLLSAMTMASKS [NSL1]	1.5 ± 0.058	1.83 ± 0.1	1.81 ± 0.09	1.93 ± 0.059
IQNDEEYDTPALFFDPS [PRP8]	2.76 ± 0.073	3.05 ± 0.056	2.73 ± 0.085	2.86 ± 0.071
IQPKNSDDQQEAVELVI [YML103C/NUP188]	2.85 ± 0.19		3.4 ± 0.13	3.34 ± 0.12
IQRGRILPTDGSAEFNV [RPB7]	2.8 ± 0.14	3.05 ± 0.086	3.03 ± 0.081	2.79 ± 0.075
IQRLRLLREKQRVRNMR [YOR098C/NUP1]		1.28 ± 0.086		1.41 ± 0.26
IRAIRKVISEILTREVQ [RPS1B]	1.92 ± 0.07	1.65 ± 0.05	1.25 ± 0.08	1.67 ± 0.14
IRGIVKQIVHDSGRGAP [RPL2A]	1.76 ± 0.07	1.88 ± 0.065	2.79 ± 0.047	2.12 ± 0.07
IRLAKTLKKNNVAVDII [RPN10]	2.73 ± 0.085	2.85 ± 0.095	2.92 ± 0.12	2.56 ± 0.075
IRPDGRLPHQFRPIEIF [RRP42]	1.84 ± 0.087	1.94 ± 0.084	1.35 ± 0.12	2.16 ± 0.073
IRRAYLHYIPKYNRYEK [RPS11A]	2.04 ± 0.07	1.72 ± 0.064	1.81 ± 0.1	1.85 ± 0.044

Reference: the supplement of paper PMC9732359
